Assay results published in the DeepSol protein solubility set.

Assay: soluble on expression in E. coli; label from the status in PepcDB or PDB records

Sequence	soluble on expression in E. coli
MTANREAIDMARVAAGAAAAKLADDVVVIDVSGQLVITDCFVIASGSNERQVNAIVDEVEEKMRQAGYRPARREGAREGRWTLLDYRDIVVHIQHQDDRNFYALDRLWGDCPVVPVDLSANSAGAQ	not soluble
MTAPVPTCNMSGNPINLHKLTLIMPLPSPEARQFSLKLQTLIAEKIGKHGNWIPFSRFMELVLYAPQYGYYTGGSHKIGNTGDFITAPTLTSLFAQTLARQLQELLSQTAGNIYEFGAGTGQLAADLLGSISDGISRYYIIEISPELAARQKNLIQARAPEASQKVVHLTALPEAFDGIIIGNEVLDAMPVEIVRKNEGGSFEHVGVCLDNDRFTYSARPLHDLQLSALASLYFPQTDYPYTSELHPQQYAFIRTLASRLEHGCMIFIDYGFDAAQYYHPQRNQGTLIGHYRHHIIHNPFDFIGLADLTAHVNFTDIAQAGTDAGLDLIGYLPQSHFLLNLGITELLAQTGKTDSAAYICEAAAVQKLIDQHEMGELFKVIAFGKNIGIDWAGFRFGDICHKL	not soluble
MTARARSALLDAEHIVGYTTYVELLPDEITEGADDIYNTPMCGEVSRTEEAIDRALAGNDVAIIGSGDPNVYALAGLALEIIESKGATATMLDFDVVPGVP	not soluble
MTASIFSGVIPALMTPCRQDRTPDFDALVRKGKELIADGMSAVVYCGSMGDWPLLTDEQRMEGVERLVKAGIPVIVGTGAVNTASAVAHAVHAQKVGAKGLMVIPRVLSRGSVIAAQKAHFKAILSAAPEIPAVIYNSPYYGFATRADLFFALRAEHKNLVGFKEFGGPADMRYAAENITSRDDEVTLMIGVDTAVVHGFVNCGATGAITGIGNVLPKEVIHLCKLSQAAAKGDADARARALELEQALAVLSSFDEGPDLVLYFKYMMVLKGDKEYTLHFNETDALTDSQRGYVEAQFKLFNSWYADWSKLPGAVQTCKAA	soluble
MTAYAKWSSCFQNGIDSWNNLTTTAEFLNHAGNISSNCKIILDLNIVKLSDSKFYISPQVQKSLTHATVGISSNFEAESQLKKVLELSSHHFLICQLFQRLPIINIFGATPKLSERERELFQKIGNYYPVAIGTKSGLVNVTMKPQYNYSLNDSAVPSSKSEFQLDLIYFLKDVLKQDFYYSIWFNIFFDELPNMLHRNRNFDENRITLCQININIDNDQKTNMKQFFKSLISDKRYVIIFEVVNDYGVLFLINFDNTTCRKKLGIVRNV	not soluble
MTDEQRSGSRRRGGALGGGRGGNSQNSGRKRSSNSPADSASSSQKTSRNPSQNRPPMNIVPQKVTILKRNQDSQPTSPINRNAPPGPLVAAVQPLMAVELGDSGASLKGWNSNPTTPEKTTINVAGRQAEANKKQTQEYYFSKNAGSAVSAQTFQETVQYPMSSFPLEKNVPIQIDNNFTLLITPTTSKCNGLFIKVKLQHGDDNITTGALLKLDADEKTIRKSCRETIENLLKAKSSSDRFPFSKCSEGFLTSCLIKKLVDRLEAFPEAIYYCEKCDYHINTIGHAKAHLESSTHFDDVKRQEQREHLLKIIPPPTEAHLESVEKVLEGTLKSYQQVRQNGIEIGETIIYYLSTTVFPSIGLQDVILRPFGSVTYDVTLPDSDYNVAYTMSIPEGTPIFALLEQVRKKIADDGHPADHSMEMGTPSTIIFTFKGVRVKLCWMSCFNHRIQLHFSELMKTYVNLREEVAQFLQLIRLWATKAGLDSKNKPRIGLPRYGFDIMAIHFLQQIGCLPVLHELFEAGPETEKIEEMSAEKTAKLQSEEAGQRRMRLMSRYEKNTEKIGTKFDLKKSWNLAELFIGFFRYYVERHRDVVIQITQLIPMSRDVSRWNKKILHVVDPFRGDNVLSIPKVSTWQPFFFNCLLTSFVSFSIPRTKNGPLIEVSFVHNKTIKPGKKFKDTPKKATVEAPIPLTQIMEEHYQEPVYEIVNDKDHLKYMKELKERLMIDGILVNERKPIDYHTDDHRECVYGRNSLLRFKRVLKPGLNGKMAASMDGLSFVTKKGKKFINRWKKANVIILSEDSSEIDEKTKAADSNVSEIAEKLEETLKISSQKNIDVAVTSMPVSTEIKPEPITKLSNEAPVKIKNVAQPQCDLIEAPQESLMNESMMESSFDETESPMKTPIVQKPVKQNATFGKSTISTVIPDKQFCSEEFFIKLNSNLKDIVSKSKSLKPSDFHYEFSTDLFCGDFEMEMKCTHCDGSHCVENCPMMEIPPIKKYQARTPEDLKDIDDMIDKYYHENILDERRLKMLDHKIDELQSFLRKNYREDVTLTTFGSVMTGLSVNCSDIDICLRFGDGDVPPKDLTAKEVIQKTESVLRKCHLVKRVQAIVTAKVPIVKFQVKLSNGAIIDVDISYYNILAIYNTALLKEYSLWTPDKRFAKLALFVKTWAKNCEIGDASRGSLSSYCHVIMLISYLQNCDPPVLPRLQEDFRSDNRERRLVDNWDTSFAQVETSLLQRWPKNKESCAQLLIGYFDYYSRFDFRNFVVQCRREMILSKMEKEWPRPLCVEDPFDLSHNLSSGVNKKMFVFIMKVFINSRAVFMSEKPPMNRDHTFLSSYQHQLLRKCNQGSAPTDRQCHQCHRIGHFVESCPQRALAKEARKRFGSNSTNSSYRSNDSGRGFKNGEEGGDRLTYHKRTYYHRSYNK	not soluble
MTDLNKHIKQAQTQRKQLLEESRELHREKLLVQAENRFFLEYLTNKTEEYTEQPEKVWNSYLQKSGEIERRRQESASRYAEQISVLKTALLQKENIQSSLKRKLQAMRDIAILKEKQEKEIQTLQEETKKVQAETASKTREVQAQLLQEKRLLEKQLSEPDRRLLGKRKRRELNMKAQALKLAAKRFIFEYSCGINRENQQFKKELLQLIEQAQKLTATQSHLENRKQQLQQEQWYLESLIQARQRLQGSHNQCLNRQDVPKTTPSLPQGTKSRINPK	not soluble
MTDRYSFSLTTFSPSGKLGQIDYALTAVKQGVTSLGIKATNGVVIATEKKSSSPLAMSETLSKVSLLTPDIGAVYSGMGPDYRVLVDKSRKVAHTSYKRIYGEYPPTKLLVSEVAKIMQEATQSGGVRPFGVSLLIAGHDEFNGFSLYQVDPSGSYFPWKATAIGKGSVAAKTFLEKRWNDELELEDAIHIALLTLKESVEGEFNGDTIELAIIGDENPDLLGYTGIPTDKGPRFRKLTSQEINDRLEAL	soluble
MTEEFEIAGISTGAWWSSPTNTAAVFSGYSLPCSTEISPDVTNFGWQNFDNKINDHNDGCMNMHNSFFEGLLIDPNDQLLPDPWSKSTIPNAKSELLENFPFLDNMFLVDSEAESLLDHEIRNHKSSKEQITQDYKNLTSKAQLEENSDEYSPRLLKRPRLETLSPLPSFKVRKEKLGDRITALQQLVSPFGKTDTASVLNEAVEYIKFLQEQVTVLSNPEQNTIGSVQQQQCSNKKSINTQGEVEEDECSPRRYVDLSSRGLCLMPISASYPVAAAAASAAEMNVHLVSGIFHSL	soluble
MTEEKPKIGRPPVLSCAERTCQILRAAEQVFVCHGYSGTTMDRIACAAGMSKRTLYQHFPDKLAVLQGILRAYDAGPLMESLTDPDPPGSAREILHRSLVEILRFLLCPAQVALTRLAVSEATAAPEVARLFYDNAMGGLSAAFTRRIAGLAAQGRIRCSDADWLGSSLVGCALNRQLLRRLTHPEAGPPDVAELERRVSALLDLVGPSLGFAD	not soluble
MTEFFSQKQIDEIRECFNFYSTSGVLRTDSQLRCALRSLGYSPTASKTDIYFKKLNKKPIEFATFLDICKDEQNSPNPLTEIIKALSGLDRNKTRAMPSRELAAILSHVGEQMSPEEIKYLLSKVEVNGMVPHQALIEYISK	not soluble
MTEHLLAMNQKLKNPDEALSLFGNQDSFLKLMEKDLNLNIITRGETIYVSGDDESFQIADRLLGSLLALIRKGIEISERDVIYAIKMAKKNELEYFESMYEEEITKNAKGKSIRVKTMGQREYVAAMKRNDLVFGIGPAGTGKTYLAVVKAVHALKNGHIKKIILTRPAVEAGESLGFLPGDLKEKVDPYLRPLYDALHDVLGADHTERLMERGIIEIAPLAYMRGRTLDDAYVILDEAQNTTPAQMKMFLTRLGFSSKMIITGDVSQIDLPKGVKSGLAVAKEMLKGIDGISMIELDQTDVVRHPLVAKIIEAYDKQN	not soluble
MTEKKKRGLLSWLGFGDEEKSQTTATDTQTQDEPQSQADVEAVAIQTETALTETETETETETETETETETATVEPARIVEQEKPTESFFARLKRSLSRTKANIGAGFFGLFKGKKIDDDLFEELEEQLLIADVGMDTTSKIIANLTARASRQQLRDGEALYGLLKEEMAEILSQVEQPLVIDTEKKPYVILMVGVNGVGKTTTIGKLAKQFQAQGKKVMLAAGDTFRAAAVEQLQVWGERNQVPVIAQHTGADSASVIYDAIEAAKARGIDVVIADTAGRLQNKSNLMEELRKIVRVMKKIDDSAPHEIMLTLDAGTGQNAISQAKLFSDVAPITGITLTKLDGTAKGGVIFAIADQFQIPIRYIGVGEKIDDLRPFATQEFIDALFSREE	not soluble
MTELDQFWPACLARLEAELSSQQFNTWIKPLTAEAGDEGIALFAPNRFIMQFIKDRFLPRIEELAVELVGELPVELRLGAPTARPAAPVAGNSQPKAKEPAKAAASAPAAPSPAKQAAVKAIGGSHESTRLNPSFTFDTLVTGKGNQLARAAAMQIAENPGDQAYNPLFVYGGVGLGKTHLIQAIGNHVFQKNPQAKIRYIHAERYVADIMRAYQHKAFDEFKRYYHSLDLLLIDDIQFFAGKNRTQEEFFYAFNALIEGGKQVIMTCDSYPKQIEGMEERLISRFSWGLTVEIQPPELEMRVAILMKKAEADSIKLEHNVAFFIAQNVRSNVRELEGALKRVVAYARFTSQNITLELVKEALKDILAAGNRQVTVDAIQKTVAEYYKIKLSDMHSKKRSRDIARPRQVAMALAKELTQLSLPNIGDAFGGRDHTTVLHACKTITEMRASDADIAHDYEALLSMLRNLEHHHHHH	not soluble
MTENAPKFKQISAEIEKKIRDGLYVSAQKLPSEYDLAKEYNCSRLTIRKAIDDLIRKNILVKRHGKGSYVMSQAKIQSGRAGLQGFTEAAKAYGKKSQTEVISFEEVVHPAEKIREALQVGKNEAIYELIRRRMLDGEPMTVEKIYLPQAYVQGHTKQDFEGSLFCLIEKNVEIAYSHQEIEAILVEAEISELLNVPVGQPLLQVHSITYALDATPILYDVSLYRADRYTFKNTLTRYSPSENNQVELGGSWNE	not soluble
MTENVPLTRPQLRRLLRNARRALTPAQQRQATLGLYRQLAQHPLFRRARHIALYLPNDGEIDPRLLMREAQRRGKCIYLPVLHAWPRTRMVFQRFEQGEKLKPNRFRIPEPIIDRKRQRPIWALDLILLPLVGFDEVGGRLGMGGGFYDRSLAYQARRQTWKKPLLLGLAHECQKVERLAQASWDVPLQGTVSDRGWYLAPRLEHHHHHH	soluble
MTEQPAVAAPYDVLFEPVQIGPFTTKNRFYQVPHCNGMGYRDPSAQASMRKIKAEGGWSAVCTEQVEIHATSDIAPFIELRIWDDQDLPALKRIADAIHEGGGLAGIELAHNGMNAPNQLSRETPLGPGHLPVAPDTIAPIQARAMTKQDIDDLRRWHRNAVRRSIEAGYDIVYVYGAHGYSGVHHFLSKRYNQRTDEYGGSLENRMRLLRELLEDTLDECAGRAAVACRITVEEEIDGGITREDIEGVLRELGELPDLWDFAMGSWEGDSVTSRFAPEGRQEEFVAGLKKLTTKPVVGVGRFTSPDAMVRQIKAGILDLIGAARPSIADPFLPNKIRDGRLNLIRECIGCNICVSGDLTMSPIRCTQNPSMGEEWRRGWHPERIRAKESDARVLVVGAGPSGLEAARALGVRGYDVVLAEAGRDLGGRVTQESALPGLSAWGRVKEYREAVLAELPNVEIYRESPMTGDDIVEFGFEHVITATGATWRTDGVARFHTTALPIAEGMQVLGPDDLFAGRLPDGKKVVVYDDDHYYLGGVVAELLAQKGYEVSIVTPGAQVSSWTNNTFEVNRIQRRLIENGVARVTDHAVVAVGAGGVTVRDTYASIERELECDAVVMVTARLPREELYLDLVARRDAGEIASVRGIGDAWAPGTIAAAVWSGRRAAEEFDAVLPSNDEVPFRREVTQLA	soluble
MTEQTFSIREAVPTDADQLLSVMSKIGSETPYLVMDERGMAMSTTELAENLATLYESPNNVLLVALAGEAIIGTASVSASSKKRMEHIGEIGISILKEYWGYGLGSILMEELIRWAHESHVIRRLELTVQDRNQRAIHVYKKLGFETEAIMPRGAKTDQGEFLDVHLMRLLID	not soluble
